Laboratory results published in US20140072613A1, “Compositions and Methods for Treating Cutaneous Scarring” (priority 2012, published 2014).

How the values were obtained:
Assay in all cases: biochemical
Type in all cases: biochemical
[1] = molecular target: 266 human kinases (Homo sapiens, UniProt P54756); settings: EphA5(h); 100 μM
Summary of the method: (§1)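 Read-out by scintillation counting of radiolabelled, positively charged substrate bound to negatively charged filter; activity normalised to 100% control. Phosphate transferred from radiolabelled ATP.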

[2] = molecular target: T1, 266 human kinases (Homo sapiens, UniProt Q9UHD2); settings: TBK1(h); 100 μM
T1 sequence (Q9UHD2 1-729): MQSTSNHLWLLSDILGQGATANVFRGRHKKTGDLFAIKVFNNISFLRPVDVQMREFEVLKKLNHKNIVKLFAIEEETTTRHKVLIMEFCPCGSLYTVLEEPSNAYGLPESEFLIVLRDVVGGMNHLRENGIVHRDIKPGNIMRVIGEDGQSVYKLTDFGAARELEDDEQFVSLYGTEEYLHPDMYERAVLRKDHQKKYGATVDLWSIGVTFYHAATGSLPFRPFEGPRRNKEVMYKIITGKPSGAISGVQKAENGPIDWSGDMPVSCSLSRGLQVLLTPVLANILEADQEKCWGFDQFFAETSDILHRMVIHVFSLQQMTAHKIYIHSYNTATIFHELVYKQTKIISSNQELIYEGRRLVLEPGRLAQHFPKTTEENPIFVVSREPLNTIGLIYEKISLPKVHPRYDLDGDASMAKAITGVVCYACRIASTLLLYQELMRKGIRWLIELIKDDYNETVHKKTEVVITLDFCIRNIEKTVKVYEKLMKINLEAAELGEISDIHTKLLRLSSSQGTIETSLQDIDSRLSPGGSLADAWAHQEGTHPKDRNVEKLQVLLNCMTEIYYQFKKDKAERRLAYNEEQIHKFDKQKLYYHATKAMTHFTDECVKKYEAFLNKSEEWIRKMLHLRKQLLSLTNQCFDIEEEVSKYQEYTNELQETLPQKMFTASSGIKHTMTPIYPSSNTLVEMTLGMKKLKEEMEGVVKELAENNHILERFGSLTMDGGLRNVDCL
Summary of the method: as §1

[3] = molecular target: 266 human kinases (Homo sapiens, UniProt P10721); settings: cKit(h); 100 μM
Summary of the method: as §1

[4] = molecular target: 266 human kinases (Homo sapiens, UniProt Q02763); settings: Tie2(h); 100 μM
Summary of the method: as §1

[5] = molecular target: 266 human kinases (Homo sapiens, UniProt P43250); settings: GRK6(h); 100 μM
Summary of the method: as §1

[6] = molecular target: T2, 266 human kinases (Homo sapiens, UniProt P36896); settings: ALK4(h); 100 μM
T2 sequence (P36896 24-505): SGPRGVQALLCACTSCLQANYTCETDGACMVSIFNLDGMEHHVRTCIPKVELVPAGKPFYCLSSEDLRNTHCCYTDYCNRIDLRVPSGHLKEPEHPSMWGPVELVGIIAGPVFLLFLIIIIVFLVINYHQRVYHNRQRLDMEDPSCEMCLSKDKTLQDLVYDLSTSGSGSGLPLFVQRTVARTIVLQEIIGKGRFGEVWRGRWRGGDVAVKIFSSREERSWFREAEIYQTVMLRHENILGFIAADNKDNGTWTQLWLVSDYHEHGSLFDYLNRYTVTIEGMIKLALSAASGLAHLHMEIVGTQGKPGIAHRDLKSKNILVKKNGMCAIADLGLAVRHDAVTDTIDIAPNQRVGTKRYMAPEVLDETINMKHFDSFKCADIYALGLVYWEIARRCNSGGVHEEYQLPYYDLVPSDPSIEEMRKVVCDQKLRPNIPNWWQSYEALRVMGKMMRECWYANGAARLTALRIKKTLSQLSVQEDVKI
Summary of the method: as §1

[7] = molecular target: 266 human kinases (Homo sapiens, UniProt Q9UIK4); settings: DAPK2(h); 100 μM
Summary of the method: as §1

[8] = molecular target: T3, 266 human kinases (Homo sapiens, UniProt P42681); settings: Txk(h); 100 μM
T3 sequence (P42681 1-527): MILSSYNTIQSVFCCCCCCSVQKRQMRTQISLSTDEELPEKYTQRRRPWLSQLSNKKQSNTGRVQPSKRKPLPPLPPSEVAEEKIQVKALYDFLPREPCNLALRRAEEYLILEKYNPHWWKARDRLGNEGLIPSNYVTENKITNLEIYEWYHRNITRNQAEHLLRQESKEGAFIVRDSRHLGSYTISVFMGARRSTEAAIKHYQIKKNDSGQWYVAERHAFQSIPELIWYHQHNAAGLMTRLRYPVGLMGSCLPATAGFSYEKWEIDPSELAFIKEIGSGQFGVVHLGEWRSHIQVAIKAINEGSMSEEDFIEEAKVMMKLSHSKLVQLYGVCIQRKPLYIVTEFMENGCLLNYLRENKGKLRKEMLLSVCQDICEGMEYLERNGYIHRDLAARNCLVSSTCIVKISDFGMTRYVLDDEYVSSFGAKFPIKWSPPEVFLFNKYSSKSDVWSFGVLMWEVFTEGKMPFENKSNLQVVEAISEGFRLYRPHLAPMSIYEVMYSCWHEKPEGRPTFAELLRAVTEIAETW
Summary of the method: as §1

[9] = molecular target: T4, 266 human kinases (Homo sapiens, UniProt P43403); settings: ZAP-70(h); 100 μM
T4 sequence (P43403 1-619): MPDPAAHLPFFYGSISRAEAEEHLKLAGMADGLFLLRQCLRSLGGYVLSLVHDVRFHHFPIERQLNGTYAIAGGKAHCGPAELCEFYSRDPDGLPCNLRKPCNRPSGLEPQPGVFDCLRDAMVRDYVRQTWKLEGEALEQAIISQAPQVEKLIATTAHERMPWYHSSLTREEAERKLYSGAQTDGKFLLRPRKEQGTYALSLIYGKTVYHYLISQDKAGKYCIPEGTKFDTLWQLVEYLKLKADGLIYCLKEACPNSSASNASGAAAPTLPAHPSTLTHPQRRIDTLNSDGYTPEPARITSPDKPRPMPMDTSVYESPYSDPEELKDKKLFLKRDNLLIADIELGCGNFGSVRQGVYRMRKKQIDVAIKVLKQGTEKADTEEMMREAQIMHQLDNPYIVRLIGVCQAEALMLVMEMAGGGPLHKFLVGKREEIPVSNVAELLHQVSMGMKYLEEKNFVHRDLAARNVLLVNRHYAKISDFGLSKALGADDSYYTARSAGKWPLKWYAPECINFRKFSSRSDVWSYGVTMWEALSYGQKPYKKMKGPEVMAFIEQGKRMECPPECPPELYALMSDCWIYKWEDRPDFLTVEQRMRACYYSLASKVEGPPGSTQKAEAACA
Summary of the method: as §1

Chain of 266 human kinases (Homo sapiens, UniProt P54756) (P54756 25-1037): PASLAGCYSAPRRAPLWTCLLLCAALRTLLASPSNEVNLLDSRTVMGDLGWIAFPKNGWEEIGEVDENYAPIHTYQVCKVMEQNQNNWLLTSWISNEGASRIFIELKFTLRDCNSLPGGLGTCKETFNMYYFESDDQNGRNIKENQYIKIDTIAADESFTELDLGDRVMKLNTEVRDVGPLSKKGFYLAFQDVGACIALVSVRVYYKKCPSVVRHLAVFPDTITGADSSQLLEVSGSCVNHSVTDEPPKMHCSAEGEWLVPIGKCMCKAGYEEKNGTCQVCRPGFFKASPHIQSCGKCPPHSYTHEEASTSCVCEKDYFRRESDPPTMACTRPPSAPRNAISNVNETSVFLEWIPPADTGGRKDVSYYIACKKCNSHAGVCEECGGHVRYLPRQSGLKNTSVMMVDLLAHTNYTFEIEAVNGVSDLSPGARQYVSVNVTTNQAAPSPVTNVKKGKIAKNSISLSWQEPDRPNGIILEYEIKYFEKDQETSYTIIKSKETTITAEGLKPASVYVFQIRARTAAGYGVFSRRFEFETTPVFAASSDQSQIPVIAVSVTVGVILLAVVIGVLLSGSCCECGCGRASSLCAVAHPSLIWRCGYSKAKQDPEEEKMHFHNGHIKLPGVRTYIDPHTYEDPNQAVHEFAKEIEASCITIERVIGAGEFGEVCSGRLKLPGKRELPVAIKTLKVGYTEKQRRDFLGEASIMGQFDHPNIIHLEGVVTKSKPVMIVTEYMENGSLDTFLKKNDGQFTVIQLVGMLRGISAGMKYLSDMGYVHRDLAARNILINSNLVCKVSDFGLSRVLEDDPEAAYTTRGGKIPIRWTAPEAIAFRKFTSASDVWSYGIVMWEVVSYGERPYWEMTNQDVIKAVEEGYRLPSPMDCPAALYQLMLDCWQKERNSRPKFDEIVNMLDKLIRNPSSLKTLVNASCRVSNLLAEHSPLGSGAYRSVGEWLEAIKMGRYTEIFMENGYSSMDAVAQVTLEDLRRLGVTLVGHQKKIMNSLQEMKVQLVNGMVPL
Chain of 266 human kinases (Homo sapiens, UniProt P43250) (P43250 whole entry): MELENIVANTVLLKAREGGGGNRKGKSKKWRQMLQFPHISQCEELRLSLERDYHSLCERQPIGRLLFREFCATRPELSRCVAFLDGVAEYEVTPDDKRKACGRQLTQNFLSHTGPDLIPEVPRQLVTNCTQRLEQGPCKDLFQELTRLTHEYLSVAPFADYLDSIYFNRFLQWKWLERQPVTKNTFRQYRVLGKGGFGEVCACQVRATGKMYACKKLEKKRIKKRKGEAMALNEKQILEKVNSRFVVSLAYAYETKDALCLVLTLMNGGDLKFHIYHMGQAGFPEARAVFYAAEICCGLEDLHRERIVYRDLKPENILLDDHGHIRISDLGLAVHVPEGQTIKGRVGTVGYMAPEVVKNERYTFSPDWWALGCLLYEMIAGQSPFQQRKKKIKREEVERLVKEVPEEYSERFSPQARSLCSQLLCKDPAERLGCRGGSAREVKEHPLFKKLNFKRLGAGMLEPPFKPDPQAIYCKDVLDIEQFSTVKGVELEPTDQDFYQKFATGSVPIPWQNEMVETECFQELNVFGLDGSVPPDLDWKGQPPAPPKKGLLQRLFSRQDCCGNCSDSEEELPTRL
Chain of 266 human kinases (Homo sapiens, UniProt Q9UIK4) (Q9UIK4 whole entry): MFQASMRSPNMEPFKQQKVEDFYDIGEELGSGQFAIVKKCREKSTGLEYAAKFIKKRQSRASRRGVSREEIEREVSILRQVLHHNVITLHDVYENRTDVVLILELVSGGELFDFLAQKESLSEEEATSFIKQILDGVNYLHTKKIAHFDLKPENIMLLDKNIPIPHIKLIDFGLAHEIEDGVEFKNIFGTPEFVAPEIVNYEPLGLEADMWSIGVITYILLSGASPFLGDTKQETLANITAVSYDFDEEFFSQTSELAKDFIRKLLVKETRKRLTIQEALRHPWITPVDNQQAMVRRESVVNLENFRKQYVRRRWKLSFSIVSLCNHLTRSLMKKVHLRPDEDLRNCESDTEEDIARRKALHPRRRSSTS
Chain of 266 human kinases (Homo sapiens, UniProt Q02763) (Q02763 23-1124): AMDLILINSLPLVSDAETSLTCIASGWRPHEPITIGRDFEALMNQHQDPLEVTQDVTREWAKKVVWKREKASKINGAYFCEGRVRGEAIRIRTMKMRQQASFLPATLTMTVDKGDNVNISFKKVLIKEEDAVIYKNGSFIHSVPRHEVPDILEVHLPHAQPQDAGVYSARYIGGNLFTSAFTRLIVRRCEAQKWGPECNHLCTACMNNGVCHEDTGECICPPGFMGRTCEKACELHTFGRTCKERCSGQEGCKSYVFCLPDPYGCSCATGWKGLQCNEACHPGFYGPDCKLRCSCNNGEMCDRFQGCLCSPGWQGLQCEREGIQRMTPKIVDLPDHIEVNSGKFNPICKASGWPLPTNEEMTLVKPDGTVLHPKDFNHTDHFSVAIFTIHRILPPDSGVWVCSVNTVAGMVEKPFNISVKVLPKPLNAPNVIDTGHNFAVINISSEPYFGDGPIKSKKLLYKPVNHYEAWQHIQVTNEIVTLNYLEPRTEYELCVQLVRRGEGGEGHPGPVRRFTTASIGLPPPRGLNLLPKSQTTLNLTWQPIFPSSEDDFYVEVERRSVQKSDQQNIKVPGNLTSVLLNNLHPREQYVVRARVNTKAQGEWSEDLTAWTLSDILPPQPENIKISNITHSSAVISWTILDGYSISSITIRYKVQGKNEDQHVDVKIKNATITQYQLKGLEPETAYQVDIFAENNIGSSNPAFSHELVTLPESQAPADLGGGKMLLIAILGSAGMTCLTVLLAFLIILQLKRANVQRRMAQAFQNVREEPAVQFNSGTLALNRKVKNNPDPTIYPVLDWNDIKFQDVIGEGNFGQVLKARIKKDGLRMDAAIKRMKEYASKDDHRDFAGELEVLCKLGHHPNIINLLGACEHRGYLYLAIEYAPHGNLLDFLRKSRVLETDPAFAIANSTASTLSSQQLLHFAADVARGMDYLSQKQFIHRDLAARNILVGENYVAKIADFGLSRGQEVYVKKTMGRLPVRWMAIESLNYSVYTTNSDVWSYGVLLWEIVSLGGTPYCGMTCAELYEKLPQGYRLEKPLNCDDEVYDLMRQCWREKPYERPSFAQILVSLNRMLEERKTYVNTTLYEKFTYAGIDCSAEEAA

| Sequence | % activity [1] [%] | % activity [2] [%] | % activity [3] [%] | % activity [4] [%] | % activity [5] [%] | % activity [6] [%] | % activity [7] [%] | % activity [8] [%] | % activity [9] [%] |
| --- | --- | --- | --- | --- | --- | --- | --- | --- | --- |
| HRRIKAWLKKIKALARQLGVAA (mammal) [MMI-0500] | 42 | 16 | 45 | 22 | 174 | 81 | 3 | 10 | 1 |
| YARAAARQARAKALNRQLGVA (mammal) [MMI-0200] | 123 | 98 | 110 | 53 | 132 | 152 | 92 | 98 | 58 |
